These results are taken from publication PMC10866537 (2024).

The test concerns the target T1, mouse 4-1BB–Fc protein (mouse, UniProt P20334 24-187).
T1 chain: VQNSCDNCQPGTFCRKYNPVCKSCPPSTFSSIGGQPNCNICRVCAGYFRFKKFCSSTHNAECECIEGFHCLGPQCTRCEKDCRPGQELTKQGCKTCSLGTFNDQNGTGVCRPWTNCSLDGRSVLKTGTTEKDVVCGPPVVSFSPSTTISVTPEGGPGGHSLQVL
Kind of test: SPR.

B1: mouse siglec-4–HIS protein (domain or fragment)
chain: GHWGAWMPSTISAFEGTCVSIPCRFDFPDELRPAVVHGVWYFNSPYPKNYPPVVFKSRTQVVHESFQGRSRLLGDLGLRNCTLLLSTLSPELGGKYYFRGDLGGYNQYTFSEHSVLDIVNTPNIVVPPEVVAGTEVEVSCMVPDNCPELRPELSWLGHEGLGEPTVLGRLREDEGTWVQVSLLHFVPTREANGHRLGCQAAFPNTTLQFEGYASLDVKYPPVIVEMNSSVEAIEGSHVSLLCGADSNPPPLLTWMRDGMVLREAVAKSLYLDLEEVTPGEDGVYACLAENAYGQDNRTVELSVMYAPWKPTVNGTVVAVEGETVSILCSTQSNPDPILTIFKEKQILATVIYESQLQLELPAVTPEDDGEYWCVAENQYGQRATAFNLSVEFAPIILLESHCAAARDTVQCLCVVKSNPEPSVAFELPSRNVTVNETEREFVYSERSGLLLTSILTIRGQAQAPPRVICTSRNLYGTQSLELPFQGAHRLMWAKIGP
On to B1, for which the koff was determined as 0.011 s⁻¹.
